From patent publication US20170015742A1 (published 2017)
Positions count from the first letter of the chain named. Numbers in names are those of the source.

B1: 9E10.6_GS_CL-33675 (PR-1612492) (bispecific antibody, human IgG1, kappa, L234A L235A)
heavy: EVQLVQSGAEVKKPGSSVKVSCKASGYTFTNYGMYWVRQAPGQGLEWMGWIDTETGRPTYADDFKGRFTFTADKSTSTAYMELSSLRSEDTAVYYCARWSGDTTGIRGPWFAYWGQGTLVTVSSGGGGSGGGGSEVTLRESGPALVKPTQTLTLTCTFSGFSLSTYGMGVGWIRQPPGKALEWLANIWWDDDKYYNPSLKNRLTISKDTSKNQVVLTMTNMDPVDTATYYCARIESSGPKYSFDYWGQGTMVTVSSASTKGPSVFPLAPSSKSTSGGTAALGCLVKDYFPEPVTVSWNSGALTSGVHTFPAVLQSSGLYSLSSVVTVPSSSLGTQTYICNVNHKPSNTKVDKKVEPKSCDKTHTCPPCPAPEAAGGPSVFLFPPKPKDTLMISRTPEVTCVVVDVSHEDPEVKFNWYVDGVEVHNAKTKPREEQYNSTYRVVSVLTVLHQDWLNGKEYKCKVSNKALPAPIEKTISKAKGQPREPQVYTLPPSREEMTKNQVSLTCLVKGFYPSDIAVEWESNGQPENNYKTTPPVLDSDGSFFLYSKLTVDKSRWQQGNVFSCSVMHEALHNAYTQKSLSLSPGK
light: DIRMTQSPSSLSASVGDRVTITCLASEDIYSDLAWYQQKPGKSPKLLIYNANGLQNGVPSRFSGSGSGTDYTLTISSLQPEDVATYFCQQYNYFPGTFGQGTKLEIKGGSGGGGSGGEIVLTQSPGTLSLSPGERATLSCRASSGSIWYSFVSWYQQKPGQAPRLLIYADDQRASGIPDRFSGSGSGTDFTLTISRLEPEDFAVYYCQSYGINIDVVFGGGTKVEIKRTVAAPSVFIFPPSDEQLKSGTASVVCLLNNFYPREAKVQWKVDNALQSGNSQESVTEQDSKDSTYSLSSTLTLSKADYEKHKVYACEVTHQGLSSPVTKSFNRGEC
notes: DVD-Ig: outer hBEW-9E10.6 (VEGF), inner CL-33675 (PDGF), linkers GS-H10 / GS-L10(dR); Human IgG1 L234A, L235A, H435A with kappa light chain
B2: 1B10.1_GS_CL-33675 (PR-1611292) (bispecific antibody, human IgG1, kappa, L234A L235A)
heavy: EVQLVESGGGLVQPGGSLRLSCAASGFSFSKYDMAWFRQAPGKGLEWVASITTSGVGTYYRDSVKGRFTVSRDNAKSTLYLQMNSLRAEDTAVYYCARGYGAMDAWGQGTTVTVSSGGGGSGGGGSEVTLRESGPALVKPTQTLTLTCTFSGFSLSTYGMGVGWIRQPPGKALEWLANIWWDDDKYYNPSLKNRLTISKDTSKNQVVLTMTNMDPVDTATYYCARIESSGPKYSFDYWGQGTMVTVSSASTKGPSVFPLAPSSKSTSGGTAALGCLVKDYFPEPVTVSWNSGALTSGVHTFPAVLQSSGLYSLSSVVTVPSSSLGTQTYICNVNHKPSNTKVDKKVEPKSCDKTHTCPPCPAPEAAGGPSVFLFPPKPKDTLMISRTPEVTCVVVDVSHEDPEVKFNWYVDGVEVHNAKTKPREEQYNSTYRVVSVLTVLHQDWLNGKEYKCKVSNKALPAPIEKTISKAKGQPREPQVYTLPPSREEMTKNQVSLTCLVKGFYPSDIAVEWESNGQPENNYKTTPPVLDSDGSFFLYSKLTVDKSRWQQGNVFSCSVMHEALHNAYTQKSLSLSPGK
light: DIQMTQSPSSLSASVGDRVTITCKASQDIDDYLSWYQQKPGKSPKLVIYAATRLADGVPSRFSGSGSGTDYTLTISSLQPEDFATYYCLQSSSTPWTFGGGTKVEIKGGSGGGGSGGEIVLTQSPGTLSLSPGERATLSCRASSGSIWYSFVSWYQQKPGQAPRLLIYADDQRASGIPDRFSGSGSGTDFTLTISRLEPEDFAVYYCQSYGINIDVVFGGGTKVEIKRTVAAPSVFIFPPSDEQLKSGTASVVCLLNNFYPREAKVQWKVDNALQSGNSQESVTEQDSKDSTYSLSSTLTLSKADYEKHKVYACEVTHQGLSSPVTKSFNRGEC
notes: DVD-Ig: outer hBEW-1B10.1 (VEGF), inner CL-33675 (PDGF), linkers GS-H10 / GS-L10(dR); Human IgG1 L234A, L235A, H435A with kappa light chain
B3: 9E10.1_GS_3E2.1 (PR-1610562) (bispecific antibody, human IgG1, kappa, L234A L235A)
heavy: EIQLVQSGSELKKPGASVKVSCKASGYTFTNYGMYWVKQAPGQGLEYMGWIDTETGRPTYADDFKGRFVFSLDTSVSTAYLQISSLKAEDTAVYFCARWSGDTTGIRGPWFAYWGQGTLVTVSSGGGGSGGGGSEVQLVQSGAEVKKPGSSVKVSCKASGYTFTESYMYWVKQAPGQGLELIGRIDPEDGSTDYVEKFKNKATLTADKSTSTAYMELSSLRSEDTAVYFCARFGARSYFYPMDAWGQGTTVTVSSASTKGPSVFPLAPSSKSTSGGTAALGCLVKDYFPEPVTVSWNSGALTSGVHTFPAVLQSSGLYSLSSVVTVPSSSLGTQTYICNVNHKPSNTKVDKKVEPKSCDKTHTCPPCPAPEAAGGPSVFLFPPKPKDTLMISRTPEVTCVVVDVSHEDPEVKFNWYVDGVEVHNAKTKPREEQYNSTYRVVSVLTVLHQDWLNGKEYKCKVSNKALPAPIEKTISKAKGQPREPQVYTLPPSREEMTKNQVSLTCLVKGFYPSDIAVEWESNGQPENNYKTTPPVLDSDGSFFLYSKLTVDKSRWQQGNVFSCSVMHEALHNAYTQKSLSLSPGK
light: DIRMTQSPSSLSASVGDRVTIECLASEDIYSDLAWYQQKPGKSPKLLIYNANGLQNGVPSRFSGSGSGTDYSLTISSLQPEDVATYFCQQYNYFPGTFGQGTKLEIKGGSGGGGSGGETVLTQSPATLSLSPGERATLSCRASESVSTLMHWYQQKPGQQPRLLIYGASNLESGVPARFSGSGSGTDFTLTISSLEPEDFAVYFCQQSWNDPWTFGGGTKVEIKRTVAAPSVFIFPPSDEQLKSGTASVVCLLNNFYPREAKVQWKVDNALQSGNSQESVTEQDSKDSTYSLSSTLTLSKADYEKHKVYACEVTHQGLSSPVTKSFNRGEC
notes: DVD-Ig: outer hBEW-9E10.1 (VEGF), inner hBFU-3E2.1 (PDGF), linkers GS-H10 / GS-L10(dR); Human IgG1 L234A, L235A, H435A with kappa light chain
B4: 9E10.6_GS_3E2.1 (PR-1610563) (bispecific antibody, human IgG1, kappa, L234A L235A)
heavy: EVQLVQSGAEVKKPGSSVKVSCKASGYTFTNYGMYWVRQAPGQGLEWMGWIDTETGRPTYADDFKGRFTFTADKSTSTAYMELSSLRSEDTAVYYCARWSGDTTGIRGPWFAYWGQGTLVTVSSGGGGSGGGGSEVQLVQSGAEVKKPGSSVKVSCKASGYTFTESYMYWVKQAPGQGLELIGRIDPEDGSTDYVEKFKNKATLTADKSTSTAYMELSSLRSEDTAVYFCARFGARSYFYPMDAWGQGTTVTVSSASTKGPSVFPLAPSSKSTSGGTAALGCLVKDYFPEPVTVSWNSGALTSGVHTFPAVLQSSGLYSLSSVVTVPSSSLGTQTYICNVNHKPSNTKVDKKVEPKSCDKTHTCPPCPAPEAAGGPSVFLFPPKPKDTLMISRTPEVTCVVVDVSHEDPEVKFNWYVDGVEVHNAKTKPREEQYNSTYRVVSVLTVLHQDWLNGKEYKCKVSNKALPAPIEKTISKAKGQPREPQVYTLPPSREEMTKNQVSLTCLVKGFYPSDIAVEWESNGQPENNYKTTPPVLDSDGSFFLYSKLTVDKSRWQQGNVFSCSVMHEALHNAYTQKSLSLSPGK
light: B3 light with E22T, S72T
notes: DVD-Ig: outer hBEW-9E10.6 (VEGF), inner hBFU-3E2.1 (PDGF), linkers GS-H10 / GS-L10(dR); Human IgG1 L234A, L235A, H435A with kappa light chain

target: VEGF-A (UniProt P15692-4 27-191, limits assumed); assay: SPR (Biacore), DVD-Ig captured by anti-human Fc, antigen injected
Description: (§1) For example, approximately 9000 RU of goat anti-human Fc specific polyclonal antibody (Thermo Fisher Scientific Inc., Rockford, Ill.) diluted in 10 mM sodium acetate (pH 4.5) is directly immobilized across a CM5 research grade biosensor chip using a standard amine coupling kit according to manufacturer's instructions and procedures at 25 μg/ml. Unreacted moieties on the biosensor surface were blocked with ethanolamine. For kinetic analysis, rate equations derived from the 1:1 Langmuir binding model were fitted simultaneously to multiple antigen injections (using global fit analysis) with the use of Scrubber 2 (BioLogic Software), Biacore Biaevaluation 4.0.1 software or Biacore T100 Evaluation software. Purified antibodies or DVD-Ig molecules were diluted in running buffer for capture across goat anti-human Fc reaction surfaces. Antibodies or DVD-Ig molecules to be captured as a ligand (1 μg/ml) were injected over reaction matrices at a flow rate of 10 μl/minute. During the assay, all measurements were referenced against the capture surface alone (i.e., with no captured antibody or DVD-Ig molecule). […] The equilibrium dissociation constant KD (M) of the reaction between antibodies and the target antigen was then calculated from the kinetic rate constants by the following formula: KD=Koff/Kₒₙ. Binding was recorded as a function of time and kinetic rate constants were calculated.

Sequence of VEGF-A (P15692 other isoform, or with tags, fused parts or gaps limits assumed): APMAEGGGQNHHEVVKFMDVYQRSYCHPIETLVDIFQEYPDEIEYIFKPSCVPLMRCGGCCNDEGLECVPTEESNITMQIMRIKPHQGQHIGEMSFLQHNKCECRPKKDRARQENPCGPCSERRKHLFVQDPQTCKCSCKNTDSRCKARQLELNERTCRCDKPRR

Kd	kon	Binder
2 pM	1.1e+07 M⁻¹ s⁻¹	B1
62 pM	2.1e+06 M⁻¹ s⁻¹	B2
2.4 pM	9.3e+06 M⁻¹ s⁻¹	B3
3 pM	8.6e+06 M⁻¹ s⁻¹	B4

target: PDGF-BB (UniProt P01127 82-190); assay: as above
Description: as §1

Sequence of PDGF-BB (P01127 82-190): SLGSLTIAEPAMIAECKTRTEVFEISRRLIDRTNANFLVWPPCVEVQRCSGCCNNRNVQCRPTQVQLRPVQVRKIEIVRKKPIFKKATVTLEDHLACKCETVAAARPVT

Kd	kon	Binder
1.2 pM	2.4e+07 M⁻¹ s⁻¹	B1
0.54 pM	2.2e+07 M⁻¹ s⁻¹	B2
21 pM	4.1e+07 M⁻¹ s⁻¹	B3
36 pM	5.8e+06 M⁻¹ s⁻¹	B4
